In experiment [1] the target is T1, Human IL-33-his (human, UniProt O95760 112-270, biotinylated with EZ-Link NHS-Biotin where used as IL-33-his-biotin).
T1 sequence: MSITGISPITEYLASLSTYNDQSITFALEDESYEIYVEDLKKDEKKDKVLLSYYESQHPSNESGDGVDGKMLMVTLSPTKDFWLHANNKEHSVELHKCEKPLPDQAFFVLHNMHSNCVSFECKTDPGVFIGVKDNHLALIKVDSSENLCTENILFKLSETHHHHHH
Nature of the experiment: cell-based or functional assay.

In experiment [2] the target is T1, Human IL-33-his. Briefly: indirect ELISA, biotinylated IL-33-his on streptavidin plate. Here is the method:
The binding ability of murine antibody to human IL-33 protein was determined by indirect enzyme-linked immunosorbent assay (ELISA). The specific methods were as follows: The plate was pre-coated with biotin-avidin (SA) which was diluted in coating solution (50 mM carbonate coating buffer, pH 9.6) to 2 μg/ml at 4° C. overnight, then the plate was blocked with 5% skim milk powder at 37° C. for 2 hours and stored at −80° C. for later use. Biotinylated recombinant human IL-33-his protein was diluted to 0.5 μg/ml in coating solution (50 mM carbonate coating buffer, pH 9.6) and was added at 100 μl/well to the pre-coated SA plate, 37° C., 0.5 h. After washing the plate with PBST for 3 times, the antibodies to be tested were diluted by gradient with 1% BSA buffer and added into the blocked plate at 100 μl/well, and incubated at 37° C. for 1 hour. The plate was washed with PBST for 3 times, and the HRP-labeled goat anti-mouse IgG was added and placed at 37° C. for 30 min. After washing the plate with PBST for 3 times, the plate was patted on the absorbent paper to remove residual droplets as far as possible. […] OD values were read at 450 nm on the microplate reader to analyze the binding ability of the antibodies to be tested to the target antigen human IL-33-his.
For orientation: ELISA stands for enzyme-linked immunosorbent assay.

A further experiment concerns the target T2, Cynomolgus IL-33-his (cynomolgus, UniProt A0A2K5W3I1 112-269, biotinylated in the ELISA of Example 6).
T2 construct: Bought protein; also called cynomolgus IL-33 protein; Cynomolgus monkeys IL-33
T2 sequence: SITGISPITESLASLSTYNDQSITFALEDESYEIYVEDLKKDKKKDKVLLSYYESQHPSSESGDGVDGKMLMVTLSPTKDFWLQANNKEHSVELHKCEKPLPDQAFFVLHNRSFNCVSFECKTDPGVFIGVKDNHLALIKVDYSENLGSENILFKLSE
Nature of the experiment: indirect ELISA, biotinylated cynomolgus IL-33-his on streptavidin plate. As to the method:
The binding ability of murine antibody to cynomolgus IL-33 was determined by indirect enzyme-linked immunosorbent assay (ELISA). The specific methods were as follows: The plate was pre-coated by biotin-avidin (SA) which was diluted in coating solution (50 mM carbonate coating buffer, pH 9.6) to 2 μg/ml at 4° C. overnight. The plate was blocked with 5% skim milk powder at 37° C. for 2 hours, and stored at −80° C. for later use. Biotinylated recombinant cynomolgus IL-33-his protein was diluted to 1 μg/ml in coating solution (50 mM carbonate coating buffer, pH 9.6) and was added at 100 μl/well to the pre-coated SA plate for 0.5 h at 37° C. After washing the plate with PBST for 3 times, the antibodies to be tested were diluted by gradient with 1% BSA buffer and added into the blocked plate with 100 μl/well, and incubated at 37° C. for 1 hour. The plate was washed with PBST for 3 times, and the HRP-labeled goat anti-mouse IgG was added and placed at 37° C. for 30 min. After washing the plate with PBST for 3 times, the plate was patted on the absorbent paper to remove residual droplets as far as possible. […] OD values were read at 450 nm on the microplate reader to analyze the binding ability of the antibody to the target antigen cynomolgus IL-33-his.

Experiment [3] has as its target T1, Human IL-33-his. Briefly: competition ELISA, antibody mixed with IL-33-his-biotin, ST2 on plate; competitor ST2. Here is the method: ST2 is the only receptor for IL-33 that has been discovered so far. As a cytokine, IL-33 exerts its physiological function depending on ST2 signaling pathway, and the blocking activity of antibody can reflect the neutralizing activity thereof. The specific method was as follows: the plate was coated with 2 μg/ml ST2 PBS solution at 4° C. overnight; the plate was washed with PBST for 3 times, then the plated was blocked with 5% skim milk powder at 37° C. for 2 hours; the plate was washed with PBST for 3 times for later use. 20 ng/ml IL-33-his-biotin antigen diluted by 1% BSA was mixed with antibodies to be tested diluted by gradient with 1% BSA at 1:1 equal volume and incubated at 37° C. for […]. The mixture was added to a pre-coated ST2 plate and incubated at 37° C. for 1 h. The plate was washed with PBST for 3 times. HRP-labeled streptavidin secondary antibody was added at 1:8000 and incubated at 37° C. for 0.5 hours. After washing the plate with PBST for 3 times, the plate was patted on the absorbent paper to remove residual droplets as far as possible. 100 μl TMB was added to each well, and the plate was placed at room temperature (20±5° C.) for 5 minutes away from light; 50 μl 2M H₂SO₄ terminating solution was added to each well to terminate the substrate reaction. OD values were read at 450 nm on the microplate reader.

In experiment [4] the target is T1, Human IL-33-his. Nature of the experiment: ELISA, IL-33-his-biotin on streptavidin plate, anti-human Fc detection. Here is the method: SA protein was diluted to 2 μg/mL to coat ELISA plate at 100 μL/well overnight at 4° C. The plate was washed with PBST (PBS containing 0.05% Tween20) for 3 times, and blocked with 2% BSA prepared in PBS at 200 μL/well, at room temperature for 2 h. After the plate was washed twice with PBST, IL-33-his-biotin protein was diluted to 1 μg/mL with 1% BSA prepared in PBST, and was added to ELISA plate at 100 μL/well. The plate was incubated at room temperature for 1 h, and each monoclonal antibody was diluted with 1% BSA prepared in PBST in a 3-fold gradient. The highest concentration of antibody was 10 μg/mL, and the antibody was diluted for 12 gradients. Each diluted monoclonal antibody was added to ELISA wells with 100 μL/well, and the plate was incubated at room temperature for 1 h. Each sample was added to duplicate wells in parallel. The plate was washed with PBST for 3 times, and HRP-anti human IgG Fc secondary antibody prepared with PBST was diluted at an appropriate ratio, and was added to ELISA wells at 100 μL/well. The plate was incubated at room temperature for 1 h. After washing with PBST for 3 times, TMB developing solution was added at 100 μL/well. When the development met expectations, 2M H₂SO₄ was added to terminate the chromogenic reaction at 70 μL/well. Each reaction solution was shaken uniformly and OD450 nm was read on a microplate reader. The data was analyzed and EC₅₀ was calculated.

For experiment [5], the target named is T1, Human IL-33-his. Briefly: competition ELISA, antibody mixed with IL-33-his-biotin, ST2-Fc on plate; competitor ST2-Fc. As to the method: (§1) ST2-Fc protein was diluted to 1 μg/mL with ELISA coating solution to coat ELISA plate with 100 μL/well. The plate was placed in a wet box at 4° C. for 16 h for coating. The ELISA plate was washed 3 times with PBST, and then was blocked with 2% BSA prepared in PBS at 200 μL/well at room temperature for 2 h. The plate was washed once with PBST, and was patted dry to remove the excess blocking solution. Each monoclonal antibody was diluted with 1% BSA prepared in PBST in a 3-fold gradient. The highest concentration of antibody was 10 μg/mL, and the antibody was diluted for 11 gradients. The diluted antibody was mixed 1:1 with 10 ng/ml IL-33-his-biotin, and then the mixture was added into the ELISA well at 100 μL/well. The plate was incubated at room temperature for 1 h. Each concentration was added to duplicate wells in parallel (maximum final concentration of antibody was […], final concentration of IL-33-his-biotin was 5 ng/mL). Unbound or non-specifically bound primary antibodies were washed out. According to the instructions of the antibody, HRP labeled streptavidin secondary antibody was diluted to an appropriate concentration with antibody diluent solution, then it was added to ELISA plate with 100 μL/well, and was incubated at room temperature for 1 h. The ELISA plate was washed with PBST for 5 times, and was patted dry on absorbent paper to remove excess liquid. TMB developing solution was added with 100 μL/well for development to an appropriate degree. 2M H₂SO₄ was added with 70 μL/well to terminate development, and the absorbance was measured at 450 nm on a multifunctional microplate reader. The data were analyzed.

Experiment [6] addresses T1, Human IL-33-his. Nature of the experiment: competition ELISA: antibody mixed with IL-33-his-biotin, added to an ST2-Fc-coated plate, HRP-streptavidin; blocked ligand ST2-Fc. Here is the method: as §1, with “According to the instructions of the antibody, HRP labeled streptavidin secondary antibody was diluted to an appropriate concentration with antibody diluent solution, then it was added to ELISA plate with 100 μL/well, and was incubated at room temperature for 1 h. The ELISA plate was washed with PBST for 5 times, and was patted dry on absorbent paper to remove excess liquid. TMB developing solution was added with 100 μL/well for development to an appropriate degree.” left out

B1: 871G1 (antibody, V domains shown)
VH: QVHLKESGPGLVAPSQSLSITCNVSGFSLSKYGVHWIRQTPGRGLDWLGVLRAGGTISYNSALMSRLSISEDISKSQVFLKMNDLQTDDSAIYFCARDHYYYSSFGGFASWGQGTLVTVSA
VL: DIQMTQSPASQSASLGESVTITCLASQTIGAWLAWYRQQPGKSPQLLIYAATRLADGVPSRFSGSGSGTKFSFKINNLQAEDFVIYYCQQLNSTPYTFGGGTRLEM
notes: Murine hybridoma antibody; also called murine antibody 871G1
For the molecule B1, in the experiment with Human IL-33-his [1], the “IC50 of inhibition of IL-33-induced IL-6 expression in HUVEC cells” value was 1.66 nM and the “IC50 of inhibition of IL-33-induced IL-8 expression in HUVEC cells” value came out at 0.16 nM. This molecule came in with a concentration giving a half-maximal response (EC50) with Human IL-33-his [2] of 0.14 nM. Besides, the EC50 with Cynomolgus IL-33-his was determined as 0.04 nM. In addition, the IC50 with Human IL-33-his [3] came to 0.74 nM.

B2: 864F3-ch1 (antibody, human IgG4 S228P, kappa, V domains shown)
VH: QVQLKESGPGLVAPSQSLSITCTVSGFSLTNYGVHWVRLPPGKGLEWLGVIRAGGSSDYNSALMSRLNIRKDNSKSQVFLEMNSLQTADTAMYYCARDHYFSNSYGGSPYWGQGTLVTVSA
VL: DIQMTQSPASQSASLGESVTITCLASQTIATWLAWYQQKPGKSPQLLIYAATRLADGVPSRFSGSGSGTEFSFKISSLQAEDFVIYYCQQLYNTPYTFGGGTKLEIKR
notes: Chimeric: murine variable regions on human IgG4 (S228P) and human kappa constant regions; also called chimeric antibody 864F3-ch1
Molecule B2 gave an EC50 with Human IL-33-his [4] of 0.127 nM. Also, the IC50 with Human IL-33-his [5] stood at 45.2 nM. Also, the “IC50 (read off the curve)” value with Human IL-33-his [6] is around 6 nM.

The EC50 is the concentration giving half of the maximal effect. A high value points to a need for much substance. Broadly, the IC50 is the concentration needed to halve the response being measured.

The values above are taken from patent US20230399394A1 (SUNSHINE GUOJIAN PHARMACEUTICAL SHANGHAI, published 2023).
